# Measurements reported in patent publication US12295987B2, “Method of using a GIP/GLP1 co-agonist for diabetes” (Eli Lilly and Company, priority 2018, dated 2025).
# Target: T1, human gastric inhibitory peptide receptor (hGIPR) (Homo sapiens, UniProt P48546)
# T1 construct: expressed in transfected cells; host or cells: HEK293
# T1 sequence (P48546 22-466): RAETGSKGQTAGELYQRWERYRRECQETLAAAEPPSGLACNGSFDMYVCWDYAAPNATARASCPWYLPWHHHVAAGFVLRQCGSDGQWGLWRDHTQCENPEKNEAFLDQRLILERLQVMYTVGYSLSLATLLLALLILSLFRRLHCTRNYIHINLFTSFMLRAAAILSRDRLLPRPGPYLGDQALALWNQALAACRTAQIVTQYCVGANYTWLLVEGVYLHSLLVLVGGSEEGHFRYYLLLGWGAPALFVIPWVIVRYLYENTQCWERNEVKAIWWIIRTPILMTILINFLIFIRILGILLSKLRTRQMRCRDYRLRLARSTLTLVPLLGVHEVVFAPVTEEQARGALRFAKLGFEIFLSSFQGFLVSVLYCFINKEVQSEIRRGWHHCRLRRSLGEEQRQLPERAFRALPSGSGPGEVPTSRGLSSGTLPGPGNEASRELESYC
# Test: cAMP pharmacological functional assay in presence of 0.1% casein, hGIPR
# Type: cell-based
# Conditions: ratio of hGIPR to hGLP1R cAMP EC50 ratios
row,Substance,[hGIPR/hGLP1R] EC50 Ratio
1,"Y-Aib-EGT-αMeF-TSDHSILLDKK((2-[2-(2-Amino-ethoxy)-ethoxy]-acetyl)2-(γGlu)-CO—(CH2)18—CO2H)AQ-Aib-AFIEYLIEGGPSSGAPPPS-NH2 (YXEGTXTSDHSILLDKKAQXAFIEYLIEGGPSSGAPPPS; Aib, αMeF; acylated lysine C20 diacid; amide; (2)..(2) Xaa at position 2 is Aib; (6)..(6) Xaa at position 6 is alpha-methyl-Phe; MOD_RES (17)..(17) Lys at position 17 is chemically modified by conjugation of the epsilon-amino group of the Lys side chain with (2-[2-(2-amino-ethoxy)-ethoxy]-acetyl)2-(gamma-Glu)-CO-(CH2)18- CO2H; (20)..(20) Xaa at position 20 is Aib; MOD_RES (39)..(39) Ser at position 39 is amidated) [Peptide 128]",3.51
2,"Y-Aib-EGT-αMeF-TSDLSILLDKK((2-[2-(2-Amino-ethoxy)-ethoxy]-acetyl)2-(γGlu)-CO—(CH2)18—CO2H)AQ-Aib-AFIEYLIEGGPSSGAPPPS-NH2 (YXEGTXTSDLSILLDKKAQXAFIEYLIEGGPSSGAPPPS; Aib, αMeF; acylated lysine C20 diacid; amide; (2)..(2) Xaa at position 2 is Aib; (6)..(6) Xaa at position 6 is alpha-methyl-Phe; MOD_RES (17)..(17) Lys at position 17 is chemically modified by conjugation of the epsilon-amino group of the Lys side chain with (2-[2-(2-amino-ethoxy)-ethoxy]-acetyl)2-(gamma-Glu)-CO-(CH2)18- CO2H; (20)..(20) Xaa at position 20 is Aib; MOD_RES (39)..(39) Ser at position 39 is amidated) [Peptide 129]",3.46
3,"Y-Aib-EGT-αMeF-TSDYSI-Aib-LDEK((2-[2-(2-Amino-ethoxy)-ethoxy]-acetyl)2-(γGlu)-CO—(CH2)18—CO2H)AQ-Aib-EFI-(D-Glu)-YLIEGGPSSGAPPPS-NH2 (YXEGTXTSDYSIXLDEKAQXEFIXYLIEGGPSSGAPPPS; Aib, αMeF, D-Glu; lipidated K; amide; (2)..(2) Xaa at position 2 is Aib; (6)..(6) Xaa at position 6 is alpha-methyl-Phe; (13)..(13) Xaa at position 13 is Aib; MOD_RES (17)..(17) Lys at position 17 is chemically modified by conjugation of the epsilon-amino group of the Lys side chain with (2-[2-(2-amino-ethoxy)-ethoxy]-acetyl)2-(gamma-Glu)-CO-(CH2)18- CO2H; (20)..(20) Xaa at position 20 is Aib; (24)..(24) Xaa at position 24 is D-Glu; M) [Peptide 225]",3.80
4,"Y-Aib-EGT-αMeF-TSDYSI-αMeL-LDEK((2-[2-(2-Amino-ethoxy)-ethoxy]-acetyl)2-(γGlu)-CO—(CH2)16—CO2H)AQ-Aib-EFI-(D-Glu)-YLIEGGPSSGAPPPS-NH2 (YXEGTXTSDYSIXLDEKAQXEFIXYLIEGGPSSGAPPPS; Aib, αMeF, αMeL, D-Glu; lipidated K; amide; (2)..(2) Xaa at position 2 is Aib; (6)..(6) Xaa at position 6 is alpha-methyl-Phe; (13)..(13) Xaa at position 13 is alpha-methyl-Leu; MOD_RES (17)..(17) Lys at position 17 is chemically modified by conjugation of the epsilon-amino group of the Lys side chain with (2-[2-(2-amino-ethoxy)-ethoxy]-acetyl)2-(gamma-Glu)-CO-(CH2)16- CO2H; (20)..(20) Xaa at position 20 is Aib; (24)..(24) Xaa at position 2) [Peptide 213]",5.58
5,"Y-Aib-EGT-αMeF-TSDYSI-αMeL-LDEK((2-[2-(2-Amino-ethoxy)-ethoxy]-acetyl)2-(γGlu)-CO—(CH2)18—CO2H)AQ-Aib-AFIEYLIEGGPSSGAPPPS-NH2 (YXEGTXTSDYSIXLDEKAQXAFIEYLIEGGPSSGAPPPS; Aib, αMeF, αMeL; acylated lysine C20 diacid; amide; (2)..(2) Xaa at position 2 is Aib; (6)..(6) Xaa at position 6 is alpha-methyl-Phe; (13)..(13) Xaa at position 13 is alpha-methyl-Leu; MOD_RES (17)..(17) Lys at position 17 is chemically modified by conjugation of the epsilon-amino group of the Lys side chain with (2-[2-(2-amino-ethoxy)-ethoxy]-acetyl)2-(gamma-Glu)-CO-(CH2)18- CO2H; (20)..(20) Xaa at position 20 is Aib; MOD_RES (39)..(39) Ser at po) [Peptide 115]",2.49
6,"Y-Aib-EGT-αMeF-TSDYSI-αMeL-LDEK((2-[2-(2-Amino-ethoxy)-ethoxy]-acetyl)2-(γGlu)-CO—(CH2)18—CO2H)AQ-Aib-EFI-(D-Glu)-YLIEGGPSSGAPPPS-NH2 (YXEGTXTSDYSIXLDEKAQXEFIXYLIEGGPSSGAPPPS; Aib, αMeF, αMeL, D-Glu; lipidated K; amide; (2)..(2) Xaa at position 2 is Aib; (6)..(6) Xaa at position 6 is alpha-methyl-Phe; (13)..(13) Xaa at position 13 is alpha-methyl-Leu; MOD_RES (17)..(17) Lys at position 17 is chemically modified by conjugation of the epsilon-amino group of the Lys side chain with (2-[2-(2-amino-ethoxy)-ethoxy]-acetyl)2-(gamma-Glu)-CO-(CH2)18- CO2H; (20)..(20) Xaa at position 20 is Aib; (24)..(24) Xaa at position 2) [Peptide 227]",4.42
7,"Y-Aib-EGT-αMeF-TSDYSI-αMeL-LDKK((2-[2-(2-Amino-ethoxy)-ethoxy]-acetyl)2-(γGlu)2-CO—(CH2)18—CO2H)AQ-Aib-AFIEYLIEGGPSSGAPPPS-NH2 (YXEGTXTSDYSIXLDKKAQXAFIEYLIEGGPSSGAPPPS; Aib, αMeF, αMeL; acylated lysine C20 diacid; amide; (2)..(2) Xaa at position 2 is Aib; (6)..(6) Xaa at position 6 is alpha-methyl-Phe; (13)..(13) Xaa at position 13 is alpha-methyl-Leu; MOD_RES (17)..(17) Lys at position 17 is chemically modified by conjugation of the epsilon-amino group of the Lys side chain with (2-[2-(2-amino-ethoxy)-ethoxy]-acetyl)2-(gamma-Glu)2-CO-(CH2)18- CO2H; (20)..(20) Xaa at position 20 is Aib; MOD_RES (39)..(39) Ser at p) [Peptide 125]",2.89
8,"Y-Aib-EGT-αMeF-TSDYSI-αMeL-LDKK((2-[2-(2-Amino-ethoxy)-ethoxy]-acetyl)2-(γGlu)-CO—(CH2)18—CO2H)AQ-Aib-AFIEYLIEAGPSSGAPPPS-NH2 (YXEGTXTSDYSIXLDKKAQXAFIEYLIEAGPSSGAPPPS; Aib, αMeF, αMeL; acylated lysine C20 diacid; amide; (2)..(2) Xaa at position 2 is Aib; (6)..(6) Xaa at position 6 is alpha-methyl-Phe; (13)..(13) Xaa at position 13 is alpha-methyl-Leu; MOD_RES (17)..(17) Lys at position 17 is chemically modified by conjugation of the epsilon-amino group of the Lys side chain with (2-[2-(2-amino-ethoxy)-ethoxy]-acetyl)2-(gamma-Glu)-CO-(CH2)18- CO2H; (20)..(20) Xaa at position 20 is Aib; MOD_RES (39)..(39) Ser at po) [Peptide 126]",2.91
9,"Y-Aib-EGT-αMeF-TSDYSI-αMeL-LDKK((2-[2-(2-Amino-ethoxy)-ethoxy]-acetyl)2-(γGlu)-CO—(CH2)18—CO2H)AQ-Aib-AFIEYLIEGGPSSGAPPPS-NH2 (YXEGTXTSDYSIXLDKKAQXAFIEYLIEGGPSSGAPPPS; Aib, αMeF, αMeL, lipidated Lys, C-terminal amide; (2)..(2) Xaa at position 2 is Aib; (6)..(6) Xaa at position 6 is alpha-methyl-Phe; (13)..(13) Xaa at position 13 is alpha-methyl-Leu; MOD_RES (17)..(17) Lys at position 17 is chemically modified by conjugation of the epsilon-amino group of the Lys side chain with (2-[2-(2-amino-ethoxy)-ethoxy]-acetyl)2-(gamma-Glu)-CO-(CH2)18- CO2H; (20)..(20) Xaa at position 20 is Aib; MOD_RES (39)..(39) Ser at po) [Peptide 69]",3.21
